pKd, pKi: −log10 of the molar value. Where two headings read alike, the source gives them in different places.
Columns and labels:
[1] = molecular target: T1, extracellular domain of the prolactin receptor (hPRLbp) (Homo sapiens, UniProt P16471); settings: cited from earlier work; for pKd: read-out: Kd, binding to hPRLbp
T1 construct: with the extracellular domain of the prolactin receptor (hPRLbp)
T1 sequence (P16471 25-234 limits assumed): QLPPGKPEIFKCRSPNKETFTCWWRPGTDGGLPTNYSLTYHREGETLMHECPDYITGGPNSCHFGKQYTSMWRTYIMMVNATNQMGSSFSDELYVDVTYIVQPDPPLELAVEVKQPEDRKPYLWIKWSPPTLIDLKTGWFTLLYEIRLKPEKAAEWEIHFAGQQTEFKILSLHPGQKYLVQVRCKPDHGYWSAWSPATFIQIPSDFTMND

[2] = molecular target: IL-8 (CXCL8, interleukin 8) (UniProt P10145); assay: inhibition of 125I-IL-8 binding to neutrophil membranes; with 100 uM ZnCl2 against without Zn(II)
Sequence of IL-8 (CXCL8, interleukin 8) (P10145 28-99 limits assumed): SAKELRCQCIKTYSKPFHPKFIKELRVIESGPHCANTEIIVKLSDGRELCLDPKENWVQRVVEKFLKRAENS

[3] = molecular target: IL-8 (CXCL8, interleukin 8) (UniProt P10145); assay: inhibition of 125I-IL-8 binding to neutrophil membranes, (II)
[4] = molecular target: IL-8 (CXCL8, interleukin 8) (UniProt P10145); assay: inhibition of 125I-IL-8 binding to neutrophil membranes, in the presence of 100 uM ZnCl2

Substance | pKd ([1]; in the absence of Zn(II)) | pKd ([1]; in the presence of Zn(II)) | increase of binding affinity with Zn(II) ([1]; presence vs absence of Zn(II)) | fold better inhibition with Zn(II) than in the absence of Zn(II) [2] | pKi [3] | pKi [4]
hGH: human growth hormone, binds the extracellular domain of the prolactin receptor (hPRLbp) | 6.57 | 10.48 | about 8,000 fold | – | – | –
synthetic N-terminal peptide CXCR1 (21-residues in length in which Met 12 was replaced by a His to create a Zn(II) binding site) | – | – | – | 125 fold | 3.85 | 5.95

From patent publication US20040152634A1, “Chemokine antagonists and uses thereof” (priority 2002, published 2004)
